In PMC7710921 (Structure (London, England : 1993), 2020):

Key:
[1] = molecular target: unlabelled hTBP (human TATA-box Binding Protein) (human) (UniProt P20226); test: single-molecule two-colour nanometer co-localisation
His-tagged Rap74 = molecular target: T1, His-tagged Rap74 (human, UniProt P35269 1-517); test: reconstitution by refolding and Ni-NTA co-purification
T1 sequence (looked up): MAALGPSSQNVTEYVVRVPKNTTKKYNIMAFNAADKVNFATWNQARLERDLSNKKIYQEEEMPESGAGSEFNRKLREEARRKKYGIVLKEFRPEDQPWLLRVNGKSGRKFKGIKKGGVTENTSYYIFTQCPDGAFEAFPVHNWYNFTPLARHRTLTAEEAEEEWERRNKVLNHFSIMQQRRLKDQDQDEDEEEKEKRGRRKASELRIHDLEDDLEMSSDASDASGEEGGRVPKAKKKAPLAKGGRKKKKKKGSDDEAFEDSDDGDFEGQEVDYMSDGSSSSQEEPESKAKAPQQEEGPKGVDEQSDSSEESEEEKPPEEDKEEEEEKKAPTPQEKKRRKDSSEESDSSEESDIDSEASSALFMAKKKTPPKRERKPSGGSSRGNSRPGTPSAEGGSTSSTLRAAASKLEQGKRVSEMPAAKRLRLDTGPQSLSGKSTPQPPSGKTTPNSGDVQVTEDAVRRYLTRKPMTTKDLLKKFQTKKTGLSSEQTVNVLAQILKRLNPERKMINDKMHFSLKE

Molecule: Alexa647-labelled hTFIIA (from UniProt P52655 1-376; P52657 1-109) (complex)
- percent of TFIIA spots co-localised with TATA-box DNA in the presence of TBP [1]: 45%

B1: Rap30 (natural protein, human, UniProt P13984 1-249, looked up)
chain: MAERGELDLTGAKQNTGVWLVKVPKYLSQQWAKASGRGEVGKLRIAKTQGRTEVSFTLNEDLANIHDIGGKPASVSAPREHPFVLQSVGGQTLTVFTESSSDKLSLEGIVVQRAECRPAASENYMRLKRLQIEESSKPVRLSQQLDKVVTTNYKPVANHQYNIEYERKKKEDGKRARADKQHVLDMLFSAFEKHQYYNLKDLVDITKQPVVYLKEILKEIGVQNVKGIHKNTWELKPEYRHYQGEEKSD
- binding result (His-tagged Rap74): binds
